# Assay: soluble on expression in E. coli; label from the status in PepcDB or PDB records
row,Sequence,soluble on expression in E. coli
1,MGSDKIHHHHHHMIQTYILKIQSLKWAQREMLKTTLITDTLGHVTSTEPTTTAHVPLPDGSSTPVQIWASDNKDSQLVMLWPGFGMGGYYYRPLAAALNKAGFHVAIGELRGQGQSSAKASRKSQWGYHDLASVDFPLQIAAAKKALDLEEGHPMRFLSHSMGGQISCLFAARPEAEKYNLRAIFGVGAGSPFRPTFSPKMGKRLGLGAVLLGGIGGHIVGFWPGKVLGKDLVGYGRQSGTHMREWRRFHKHNSLDDLTAQDINYVEVMKKVSIPITFSRCPDDEDCPQASIDGLASFVPAAQIKMIEIPEALGHNRWAREPESTVKLFLEQAL,not soluble
2,MGSDKIHHHHHHMLLVTSHDIQTALEKGIQYQKLTHLFGTLSLQETENHIILNYLPVDLKTEIGLLRAQCEISGTYKFIQDIYTMMGLKMPDMRIDLPFPKPSDPDTVAQYYAYYGDDLHFNSTHAAFSLSKNVLEIKIPSADIITHRIYEAKCIKEIERLNEQDHQIPPIIQYVQDYLELQQGIIPSMAETAFALKMPERTLRHQLQQLNTSYKQIREQIIKNKALKLMEYKEYSIEVIAEALGYSEPAAFNHAFKRWFGQSPRQYGKEFY,not soluble
3,MSLNTPVEFNLPDSIELEREEVEEDLLTSGDEILLSYSSYIPPKLHSMTSHLQLRVDFFVNLLQFTRANFIYKVSPQVKLKLLESYEILNCSLSLSSYLSSDTDLTTQWHRVLLSEEVTEEELMLHQLKRFPELFGKFLAEIDEPLRSSSDIKFKVAAADLVNCVIYHSCLERGESEYRCNQLNLDLTEVGDDLPWFINFSIPDSLNKILLHLFYSFEDGNVPDEYHDKLLEIIKSLYYMCKQSDVWYAVKGSNAYEAGYQGFNLNSTLSNHLTWIQILLKIGRSVDALNIADFYHDLSGLVETLSSFDYEKAHPLYEEYFTKYGYQFSKTLFTTVIEQGKINDLFSRFPSHHDDLVRFFDEYPQYGHVSWIGNIFDQQYNAAAEVLVSVSSPDAAKKLDLNQLQVRLSIAKLSALAEEPILNMDLLNTIQSGLDLIDSQKKAAELAGEHTSLSKRYLETESHYQSILEKLKTNIVLSEYELVGIYTVLDDVTAFAKALHFLSLIKTIPEDSRQFLVSMIWRKCILFNDWNHTSDDLSTALYATLLAFFKEEYYRAGIPLPHVPKLTAPISKDTLSEQLFAGVECGNLLLDGAEADTSALSAVQTDMESRIRFLIGSAHSEAGASCVVNYETNTVDEGHHHHHH,soluble
4,MSHVSLQEFLKTEPDGTLEVVAEQYNTTLLEVVRNLPSSTVVPGDKFDTVWDTVCEWGNVTTLVHTADVILEFSGELPSGFHRHGYFNLRGKHGMSGHIKAENCTHIALIERKFMGMDTASILFFNKEGSAMLKIFLGRDDHRQLLSEQVSAFHTLAASLKEHA,soluble
5,MALNADDEDFEWEPPSEAEMKVIQARRERQDKISKLMGDYLLKGYKMLGECCELCGTILLQDKQKKNYCVACQELDSDVDKDNPALNAQAALSQVRERQLATQPVPESNGASSSEPPLSITGQPRPEHCEGAASGLRGPPPTVQPTPLSIPTPASNFLPPSNPPVQTTPPVGSSGSSLHHHPALSSAEEAVLHKLRWATQELQHAASVEASIQLCNLIRGCAESLRSLKELQLS,not soluble
6,MHHHHHHSSGVDLGTENLYFQSGVVTHEQFKAALRMVVDQGDPRLLLDSYVKIGEGSTGIVCLAREKHSGRQVAVKMMDLRKQQRRELLFNEVVIMRDYQHFNVVEMYKSYLVGEELWVLMEFLQGGALTDIVSQVRLNEEQIATVCEAVLQALAYLHAQGVIHRDIKSDSILLTLDGRVKLSDFGFCAQISKDVPKRKSLVGTPYWMAPEVISRSLYATEVDIWSLGIMVIEMVDGEPPYFSDSPVQAMKRLRDSPPPKLKNSHKVSPVLRDFLERMLVRDPQERATAQELLDHPFLLQTGLPECLVPLIQLYRKQTSTC,soluble
7,MSQRKAQNDYQKIIRSLSDRIVEAQTPIRVLDAIKWDDGIRQDFLKGRGKHAPKVDRGYYDSRPLAFDASAKKQEFQNIERDITRQLGQFNPVGQIMRRMCKEYRMVIRMLEARGTPDLGLISQELYGSASDAFHAGDPTLADLGLMLSDYLNNIADRGDLKDEPKTLTAKEVVPILQARLNTVFGEEEGTIRVFESDGIVADAAAGADYIKVRADALFNERDVRALEVHEGLVHVGTTLNGLSQPICTFLAKGPPSSTVTQEGLAILMEVIAFASYPTRLRKLTNRTRAIHMAEEGADFLDVFHFYREQGYSLEDSYQNASRVFRGSTPDGLPFTKDLSYLKGFILIYNYIQLAVRKGKLEQIPLLFCGKTTLEDMRTLRQLVDEGLVAPPKYLPPQFRDLNALSAWMCFSNFLNHLSLDRIEADYANILAAALEHHHHHH,not soluble
8,MSVNMDELRHQVMINQFVLAAGCAADQAKQLLQAAHWQFETALSTFFQETNIPNSHHHH,soluble
9,MGSSHHHHHHSSGRENLYFQGHMAQLYFYYSAMNAGKSTALLQSSYNYQERGMRTVVYTAEIDDRFGAGKVSSRIGLSSPAKLFNQNSSLFDEIRAEHEQQAIHCVLVDECQFLTRQQVYELSEVVDQLDIPVLCYGLRTDFRGELFIGSQYLLAWSDKLVELKTICFCGRKASMVLRLDQAGRPYNEGEQVVIGGNERYVSVCRKHYKEALQVDSLTAIQERHRHD,soluble
10,MGSDKIHHHHHHMGNCQILSSGDKIKLIRKKYGLRQDDIVGEEVTRNLISQIEHNKAKLTKSTAEIIIKNLKEIAKKNNLEMDVTADYLLEDELAQANSILENYVDELKNLLVYKCSRFYESLKSAEEFLIQWDIKEKKVQIYELAGDYFYIQNDLAKSVLYYEKAFDILDKTSYNKSLLSILRKLSLMYLNSLKYDRSIECCNFALNHFKNMPDDYISIFLFNTALCYYYMHYYEKALEVIDNLEPLIKDNTSKLIDVLNNKACCLSDLNRIDEAAEIYLRIFNLLNTNNIKSSQYLLILSNLIDTFAKKDVKDEVIKYLNLLLDRFPTSSQDDSYLSVACFNAAKAFIYLGDLQKAEEYLLKALTLSKNHNKYSLQEKTLSLLTDLYIQLNDFEKLEEINLEAVVLSNSQQKVCTNIFYKLLKFLNQNNKTEDIDKILNFLIKFK,not soluble
11,MDTSTNLDIGAQLIVEECPSTYSLTGMPDIKIEHPLDPNSEEGSAQGVAMGMKFILPNRFDMNVCSRFVKSLNEEDSKNIQDQVNSDLEVASVLFKAECNIHTSPSPGIQVRHVYTPSTTKHFSPIKQSTTLTNKHRGNEVSTTPLLANSLSVHQLAAQGEMLYLATRIEQENVINHTDEEGFTPLMWAAAHGQIAVVEFLLQNGADPQLLGKGRESALSLACSKGYTDIVKMLLDCGVDVNEYDWNGGTPLLYAVHGNHVKCVKMLLESGADPTIETDSGYNSMDLAVALGYRSVQQVIESHLLKLLQNIKE,soluble
12,MGHHHHHHSHMRPDCDGWLLLRKAPGGFMGPRWRRRWFVLKGHTLYWYRQPQDEKAEGLINVSNYSLESGHDQKKKYVFQLTHDVYKPFIFAADTLTDLSMWVRHLITCIS,not soluble
13,SLSSKDKDTVKALWGKIADKAEEIGSDALSRMLAVYPQTKTYFSHWKDLSPGSAPVNKHGKTIMGGIVDAVASIDDLNAGLLALSELHAFTLRVDPANFKILSHCILVLLAVKFPKDFTPEVHISYDKFFSALARALAEKYR,soluble
14,MAHHHHHHMGTLEAQTQGPGSMTAQSGLLQGKRGLILGVANNRSIAWGIAKAAREAGAELAFTYQGDALKKRVEPLAEELGAFVAGHCDVADAASIDAVFETLEKKWGKLDFLVHAIGFSDKDELTGRYIDTSEANFTNTMLISVYSLTAVSRRAEKLMADGGSILTLTYYGAEKVMPNYNVMGVAKAALEASVKYLAVDLGPQNIRVNAISAGPIKTLAASGIGDFRYILKWNEYNAPLRRTVTIDEVGDVGLYFLSDLSRSVTGEVHHADSGYHVIGMKAVDAPDISVVKD,soluble
15,MMHKRDQDYWIFSAELRDAKVKDDQSSKPQIVTPLGISIKRILCTGTVTSKQGDDRMTRITVADPVGNFYVIGFSNGFNPEEKAMLDKVSVDDRIMVIGKISSYRNTEGNYLFSIRPELVSKIDDEAMKFWSLKAYYFAKRRYYAIREAQKSENPAAEILKESGYTMVEAEAAMNAINNFPNYDYQKLFELIEPAMSSIGSSGAIAEARSMILDYIKNNDLDGKGCRYEDIVVAAKNAGIDQSTVDEILNSLGSLGEIFEVSLKRYKFVDTP,not soluble
